This passage reports binding result and EC50 results from patent publication CN113683697A (SHANGHAI XIANGYAO BIOTECHNOLOGY CO LTD, dated 2021).

The target of assay [1] is T1, B7-H3 (4Ig-B7-H3) endogenously expressed on MDA-MB-231 cells (UniProt Q5ZPR3 29-534, limits assumed).
T1 construct: whole, on cells; also called 细胞表面的B7-H3抗原
T1 sequence (looked up): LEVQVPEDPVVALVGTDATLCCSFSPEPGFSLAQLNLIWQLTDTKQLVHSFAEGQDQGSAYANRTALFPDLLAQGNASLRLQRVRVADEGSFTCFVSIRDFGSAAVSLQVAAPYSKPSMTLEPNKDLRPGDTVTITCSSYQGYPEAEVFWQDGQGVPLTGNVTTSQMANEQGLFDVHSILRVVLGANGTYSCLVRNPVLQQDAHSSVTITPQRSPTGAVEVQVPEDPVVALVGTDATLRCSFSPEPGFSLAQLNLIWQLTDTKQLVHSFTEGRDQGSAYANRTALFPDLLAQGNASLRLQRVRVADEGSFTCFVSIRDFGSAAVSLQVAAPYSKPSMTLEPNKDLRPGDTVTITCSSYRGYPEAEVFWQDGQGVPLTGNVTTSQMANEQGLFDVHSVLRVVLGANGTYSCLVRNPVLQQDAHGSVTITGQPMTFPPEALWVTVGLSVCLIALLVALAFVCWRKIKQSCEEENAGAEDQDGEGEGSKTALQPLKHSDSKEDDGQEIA
Briefly: FACS, MDA-MB-231 cells. A general note: Flow cytometry measures light scatter and fluorescence of single cells or particles in a stream.

The target in assay [2] is T2, 人B7-H3变体1(4Ig-B7-H3) on stable cells 293-h4Ig-B7-H3-copGFP (human, UniProt Q5ZPR3 29-534).
T2 construct: Full-length CDS cloned in pCDH-EF1-T2A-copGFP and expressed on stably transduced cells; residues left by T2A cleavage not described
T2 sequence: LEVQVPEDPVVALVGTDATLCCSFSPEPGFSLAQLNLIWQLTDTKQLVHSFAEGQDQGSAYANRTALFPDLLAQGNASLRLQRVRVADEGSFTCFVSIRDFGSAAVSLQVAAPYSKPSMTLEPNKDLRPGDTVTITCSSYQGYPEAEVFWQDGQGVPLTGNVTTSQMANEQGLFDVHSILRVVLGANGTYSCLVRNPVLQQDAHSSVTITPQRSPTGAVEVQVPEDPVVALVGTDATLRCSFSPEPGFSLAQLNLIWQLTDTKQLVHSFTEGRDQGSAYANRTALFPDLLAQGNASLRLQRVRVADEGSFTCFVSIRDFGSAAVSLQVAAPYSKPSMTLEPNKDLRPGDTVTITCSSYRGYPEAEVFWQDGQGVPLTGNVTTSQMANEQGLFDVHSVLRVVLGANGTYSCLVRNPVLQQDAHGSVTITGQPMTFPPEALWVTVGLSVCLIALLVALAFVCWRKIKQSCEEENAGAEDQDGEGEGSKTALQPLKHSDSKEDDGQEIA
Briefly: FACS, 293-h4Ig-B7-H3-copGFP stable cells.

For assay [3], the target named is T1, B7-H3 (4Ig-B7-H3) endogenously …. Briefly: FACS titration on MDA-MB-231 cells.

B1: scFv-27B4-H5-L4 (scFv)
scFv: QVQLVESGGGVVQPGRSLRLSCKASGYTFTTYWMHWVRQAPGKGLEWVAVIYPGDGGSYYTDSVKGRFTISRDNSKNTLYLQMNSLRAEDTAVYYCARGGNYISFPMYYWGQGTLVTVSSGGGGSGGGGSGGGGSGGGGASEIVLTQSPDFQSVTPKEKVTITCKASRGVSTALHWYQQKPDQSPKLLIKWASQSFSGVPSRFSGSGSGTDFTLTINSLEAEDAATYYCQQHYDTPYTFGQGTKLEIK
notes: VH-linker-VL in phage display vector pXY, expressed in TG1, purified on a nickel column
B1: the binding result in assay [1] and in assay [2] was “binds” each time.

B2: scFv-27B4-H5-L3 (scFv)
scFv: QVQLVESGGGVVQPGRSLRLSCKASGYTFTTYWMHWVRQAPGKGLEWVAVIYPGDGGSYYTDSVKGRFTISRDNSKNTLYLQMNSLRAEDTAVYYCARGGNYISFPMYYWGQGTLVTVSSGGGGSGGGGSGGGGSGGGGASEIVMTQSPATLSVSPGERATLSCKASRGVSTALAWYQQKPGQAPRLLIYWASTRATGIPARFSGSGSGTEFTLTISSLQSEDFAVYYCQQHYDTPYTFGQGTKLEIK
notes: as for B1
With B2, the binding result in assay [1] and in assay [2] was “binds” each time.

B3: h27B4-H2-L2 (antibody, human IgG1, kappa, V domains shown)
VH: QVQLVQSGAEVKKPGSSVKVSCKASGYTFTTYWISWVRQAPGQGLEWMGGIYPGDGGSNYAQKFQGRVTITADESTSTAYMELSSLRSEDTAVYYCARGGNYISFPMYYWGQGTLVTVSS
VL: VIWMTQSPSLLSASTGDRVTISCKASRGVSTALAWYQQKPGKAPELLIYWASTLQSGVPSRFSGSGSGTDFTLTISCLQSEDFATYYCQQHYDTPYTFGQGTKLEIKR
notes: Whole IgG, humanized; optimized hIgG1 (L235V, F243L, R292P, Y300L, P396L) and human kappa; also called zw.M0883B9.27B4Z01
For the molecule B3, the binding result in assay [1] and in assay [2] was “binds” in each case.

B4: h27B4-H2-L3 (antibody, human IgG1, kappa, V domains shown)
VH: QVQLVQSGAEVKKPGSSVKVSCKASGYTFTTYWISWVRQAPGQGLEWMGGIYPGDGGSNYAQKFQGRVTITADESTSTAYMELSSLRSEDTAVYYCARGGNYISFPMYYWGQGTLVTVSS
VL: EIVMTQSPATLSVSPGERATLSCKASRGVSTALAWYQQKPGQAPRLLIYWASTRATGIPARFSGSGSGTEFTLTISSLQSEDFAVYYCQQHYDTPYTFGQGTKLEIKR
notes: Whole IgG, humanized; optimized hIgG1 (L235V, F243L, R292P, Y300L, P396L) and human kappa; also called zw.M0883B9.27B4Z03
On to B4, for which the binding result in assay [1] and in assay [2] was “binds” throughout.

B5: h27B4-H4-L2 (antibody, human IgG1, kappa, V domains shown)
VH: EVQLVQSGAEVKKPGESLKISCKASGYTFTTYWIGWVRQMPGKGLEWMGIIYPGDGGSRYSPSFQGQVTISADKSISTAYLQWSSLKASDTAMYYCARGGNYISFPMYYWGQGTLVTVSS
VL: VIWMTQSPSLLSASTGDRVTISCKASRGVSTALAWYQQKPGKAPELLIYWASTLQSGVPSRFSGSGSGTDFTLTISCLQSEDFATYYCQQHYDTPYTFGQGTKLEIKR
notes: Whole IgG, humanized; optimized hIgG1 (L235V, F243L, R292P, Y300L, P396L) and human kappa; also called zw.M0883B9.27B4Z04
Take B5: the binding result in assay [1] and in assay [2] was “binds” in each case.

B6: h27B4-H4-L3 (antibody, human IgG1, kappa, V domains shown)
VH: EVQLVQSGAEVKKPGESLKISCKASGYTFTTYWIGWVRQMPGKGLEWMGIIYPGDGGSRYSPSFQGQVTISADKSISTAYLQWSSLKASDTAMYYCARGGNYISFPMYYWGQGTLVTVSS
VL: EIVMTQSPATLSVSPGERATLSCKASRGVSTALAWYQQKPGQAPRLLIYWASTRATGIPARFSGSGSGTEFTLTISSLQSEDFAVYYCQQHYDTPYTFGQGTKLEIKR
notes: Whole IgG, humanized; optimized hIgG1 (L235V, F243L, R292P, Y300L, P396L) and human kappa; also called zw.M0883B9.27B4Z02; 27B4Z02分子
With B6, the binding result in assay [1] and in assay [2] was “binds” each time.

B7: scFv-27B4-H5-L5 (scFv)
scFv: QVQLVESGGGVVQPGRSLRLSCKASGYTFTTYWMHWVRQAPGKGLEWVAVIYPGDGGSYYTDSVKGRFTISRDNSKNTLYLQMNSLRAEDTAVYYCARGGNYISFPMYYWGQGTLVTVSSGGGGSGGGGSGGGGSGGGGASDIVMTQTPLSLSVTPGQPASISCKASRGVSTALYWYLQKPGQPPQLLIYWASNRFSGVPDRFSGSGSGTDFTLKISRVEAEDVGVYYCQQHYDTPYTFGQGTKLEIK
notes: as for B1
B7: the binding result in assay [1] and in assay [2] was “binds” throughout.

B8: 嵌合抗体xw.M0883B9.27B4 (antibody, human IgG1, kappa, V domains shown)
VH: QVQLQQSGAELARPGASVKLSCKASGYTFTTYWMQWIQQRPGQGLEWIGAIYPGDGGSRYTQRFKGKATMTADPSSSTVYMQLTSLASEDSAVYFCARGGNYISFPMYYWGQGTSVTVSP
VL: DIVMTQSHKFMSTSVGDRVSITCKASRGVSTAVAWYQQKPGQSPKLLIYWASTRHTGVPDRFTGSGSGTDYTLTISSVQAEDLALYYCQQHYDTPYTFGGGTKLEIQR
notes: also called 嵌合抗体27B4; 27B4嵌合抗体
In assay [3], B8 displayed an EC50 of 3.2 µg/mL.

B9: scFv-27B4-H5-L1 (scFv)
scFv: QVQLVESGGGVVQPGRSLRLSCKASGYTFTTYWMHWVRQAPGKGLEWVAVIYPGDGGSYYTDSVKGRFTISRDNSKNTLYLQMNSLRAEDTAVYYCARGGNYISFPMYYWGQGTLVTVSSGGGGSGGGGSGGGGSGGGGASDIQMTQSPSSLSASMGDRVTITCKASRGVSTALNWYQQKPGKAPKLLIYWASSLQSGVPSRFSGSGSGTDFTLTISSLQPEDFATYYCQQHYDTPYTFGQGTKLEIK
notes: as for B1
As for B9, the binding result in assay [1] and in assay [2] was “binds” in each case.

B10: scFv-27B4-H5-L2 (scFv)
scFv: QVQLVESGGGVVQPGRSLRLSCKASGYTFTTYWMHWVRQAPGKGLEWVAVIYPGDGGSYYTDSVKGRFTISRDNSKNTLYLQMNSLRAEDTAVYYCARGGNYISFPMYYWGQGTLVTVSSGGGGSGGGGSGGGGSGGGGASVIWMTQSPSLLSASTGDRVTISCKASRGVSTALAWYQQKPGKAPELLIYWASTLQSGVPSRFSGSGSGTDFTLTISCLQSEDFATYYCQQHYDTPYTFGQGTKLEIK
notes: as for B1
Regarding B10, the binding result in assay [1] and in assay [2] was “binds” each time.

B11: MGA-271 (NCT02475213) (antibody, V domains shown)
VH: EVQLVESGGGLVQPGGSLRLSCAASGFTFSSFGMHWVRQAPGKGLEWVAYISSDSSAIYYADTVKGRFTISRDNAKNSLYLQMNSLRDEDTAVYYCGRGRENIYYGSRLDYWGQGTTVTVSS
VL: DIQLTQSPSFLSASVGDRVTITCKASQNVDTNVAWYQQKPGKAPKALIYSASYRYSGVPSRFSGSGSGTDFTLTISSLQPEDFATYYCQQYNNYPFTFGQGTKLEIK
On to B11, for which a half-maximal effect in assay [3] (EC50) was put at 23.8 µg/mL.

For orientation: EC50 means the concentration needed to bring the measured effect to its halfway point. Read a high EC50 as weaker potency.
